The source of these data is PMC3760798.

Assay [1] deals with GB1-tagged RelA-TA2 fragments (all ITC titrations). The assay can be described thus: ITC; all ITC titrations taken together (50 mM or 150 mM NaCl); 25°C; 20 mM Tris pH 8.0, 1 mM DTT; single-binding site model. (ITC needs no label: the signal is the heat of the interaction.)
Another assay addresses p300 (UniProt B2RWS6). The assay can be described thus: anti-p300 co-IP from nuclear extract, time course. The following applies: reference: wild type; sites S467.
For assay [2], the target named is CBP (CREB-binding protein) (UniProt P45481). The assay can be described thus: anti-CBP co-IP from nuclear extract, time course. The following applies: reference: wild type; sites S467.

TAZ1 domain of mouse CBP (residues 340–439), sequence (P45481 340-439): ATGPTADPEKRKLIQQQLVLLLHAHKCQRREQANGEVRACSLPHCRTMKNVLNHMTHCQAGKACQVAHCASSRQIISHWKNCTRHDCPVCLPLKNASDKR

“TAZ1 domain of mouse CBP (residues 340–439) (from UniProt P45481 340-439) (domain or fragment)” had a stoichiometry N in assay [1] of 0.9 to 1.2.

On to RelA (p65) (from UniProt Q04207) S467A, for which the “binding against the reference” value (with p300; in assay [2]) was “weaker” each time.

As a reminder, the stoichiometry N is a count of units in the complex or per binding partner.
